Laboratory results from US20230050440A1.

Experiments:
[1] = molecular target: dimeric mouse TIGIT-Fc (R&D Systems, 7267-TG) (mouse) (UniProt P86176); assay: BLI (ForteBio Octet RED384), IgG on AHQ sensor, 100 nM antigen, 1:1 model
[2] = molecular target: dimeric mouse TIGIT-Fc (R&D Systems, 7267-TG) (mouse) (UniProt P86176); assay: BLI (ForteBio), IgG on sensor, avid
[3] = molecular target: mouse TIGIT expressed on cells (mouse) (UniProt P86176); assay: flow cytometry on HEK 293 cells expressing the target, MFI over parental HEK 293
mouse TIGIT expressed on cells (mouse), sequence (P86176 other isoform, or with tags, fused parts or gaps limits assumed, form in doubt): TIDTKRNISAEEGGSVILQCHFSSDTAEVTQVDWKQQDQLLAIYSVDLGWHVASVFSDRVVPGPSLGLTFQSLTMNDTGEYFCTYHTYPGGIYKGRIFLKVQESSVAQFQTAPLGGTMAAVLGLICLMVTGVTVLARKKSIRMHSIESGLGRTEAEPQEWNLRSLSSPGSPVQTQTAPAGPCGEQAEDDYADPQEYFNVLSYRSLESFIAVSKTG

[4] = molecular target: mouse TIGIT expressed on cells (mouse) (UniProt P86176); assay: flow cytometry titration, HEK 293 cells expressing mouse TIGIT
[5] = molecular target: mouse TIGIT expressed on cells (mouse) (UniProt P86176); assay: flow cytometry, titration on activated mouse splenic T cells

dimeric mouse TIGIT-Fc (R&D Systems, 7267-TG) (mouse), sequence (P86176 other isoform, or with tags, fused parts or gaps limits assumed, form in doubt): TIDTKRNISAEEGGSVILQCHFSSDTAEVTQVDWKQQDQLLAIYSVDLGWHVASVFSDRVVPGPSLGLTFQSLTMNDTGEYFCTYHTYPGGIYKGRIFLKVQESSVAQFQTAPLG

Binder	Kd [1] [nM]	Kd [2] [nM]	FOB (Fold Over Background) [3] [fold]	EC50 [4] [µg/mL]	EC50 [5] [µg/mL]
Clone 22 (antibody, V domains shown) VH: QVQLQESGPGLVKPSETLSLTCAVSGYSISSGYYWAWIRQPPGKGLEWIGSIYHSGSTYYNPSLKSRVTISVDTSKNQFSLKLSSVTAADTAVYYCARQGYYYGSSGSVDFDLWGRGTLVTVSS VL: DIQMTQSPSSVSASVGDRVTITCRASQGISSWLAWYQQKPGKAPKLLIYAASNLQSGVPSRFSGSGSGTDFTLTISSLQPEDFATYYCQQANSLPPWTFGGGTKVEIK	10.5	–	–	–	–
Clone 25 (antibody, V domains shown) VH: QVQLVQSGAEVKKPGASVKVSCKASGYTFTSYAISWVRQAPGQGLEWMGWISAYNGNTNYAQKLQGRVTMTTDTSTSTAYMELRSLRSDDTAVYYCARDLSSFWSGDVLGAFDIWGQGTMVTVSS VL: DIQMTQSPSSLSASVGDRVTITCRASQSISSYLNWYQQKPGKAPKLLIYAASSLQSGVPSRFSGSGSGTDFTLTISSLQPEDFATYYCQQSVPPRTFGGGTKVEIK	1.1	0.967	117	0.24	2.28
Clone 25A (antibody, V domains shown) VH: QVQLVQSGAEVKKPGASVKVSCKASGYTFTSYAISWVRQAPGQGLEWMGWISAYNGNTKYAQKLQGRVTMTTDTSTSTAYMELRSLRSDDTAVYYCARDLSSFWSGDVLGAFDIWGQGTMVTVSS VL: DIQMTQSPSSLSASVGDRVTITCRASQSISSYLNWYQQKPGKAPKLLIYAASSLQSGVPSRFSGSGSGTDFTLTISSLQPEDFATYYCQQSVPPRTFGGGTKVEIK	–	0.823	119	–	–
Clone 16D (antibody, V domains shown) VH: QVQLVQSGAEVKKPGSSVKVSCKASGGTFSDYPISWVRQAPGQGLEWMGGIIPIVGGANYAQKFQGRVTITADESTSTAYMELSSLRSEDTAVYYCTRQSTWHKLFGTDVWGQGTTVTVSS VL: DIQMTQSPSSVSASVGDRVTITCRASQGISSWLAWYQQKPGKAPKLLIYAASSLQSGVPSRFSGSGSGTDFTLTISSLQPEDFATYYCQQGDSLPPTFGGGTKVEIK	–	2.63	63	–	–
Clone 18 (antibody, V domains shown) VH: QVQLVQSGAEVKKPGASVKVSCKASGYTFTSYYMSWVRQAPGQGLEWMGIINPSGGSTSYAQKFQGRVTMTRDTSTSTVYMELSSLRSEDTAVYYCARVRYGYADGMDVWGQGTTVTVSS VL: DIQMTQSPSSLSASVGDRVTITCRASQSISSYLNWYQQKPGKAPKLLIYGASSLQSGVPSRFSGSGSGTDFTLTISSLQPEDFATYYCQQVYHLPFTFGGGTKVEIK	8.82	–	–	–	–
Clone 16C (antibody, V domains shown) VH: QVQLVQSGAEVKKPGSSVKVSCKASGGTFREYAISWVRQAPGQGLEWMGGIHPIFGTARYAQKFQGRVTITADESTSTAYMELSSLRSEDTAVYYCTRQSTWHKLYGTDVWGQGTTVTVSS VL: DIQMTQSPSSVSASVGDRVTITCRASQGISSWLAWYQQKPGKAPKLLIYAASSLQSGVPSRFSGSGSGTDFTLTISSLQPEDFATYYCQQGDSLPPTFGGGTKVEIK	–	0.801	99	–	–
Clone 16E (antibody, V domains shown) VH: QVQLVQSGAEVKKPGSSVKVSCKASGGTFSDYPISWVRQAPGQGLEWMGGIIPIVGGANYAQKFQGRVTITADESTSTAYMELSSLRSEDTAVYYCARQSTWHKVYGTDVWGQGTTVTVSS VL: DIQMTQSPSSVSASVGDRVTITCRASQGISSWLAWYQQKPGKAPKLLIYAASSLQSGVPSRFSGSGSGTDFTLTISSLQPEDFATYYCQQGDSLPPTFGGGTKVEIK	–	3.7	56	–	–

Now from value to binder:

Kd [1] [nM]	Kd [2] [nM]	FOB (Fold Over Background) [3] [fold]	EC50 [4] [µg/mL]	EC50 [5] [µg/mL]	Binder
–	0.566	116	–	–	Clone 25E (antibody, V domains shown) VH: QVQLVQSGAEVKKPGASVKVSCKASGYTFTSYAIAWVRQAPGQGLEWMGWISAYNGNTNYAQKLQGRVTMTTDTSTSTAYMELRSLRSDDTAVYYCARSGSSFWSGDVLGAFDIWGQGTMVTVSS VL: DIQMTQSPSSLSASVGDRVTITCRASQSISSYLNWYQQKPGKAPKLLIYAASSLQSGVPSRFSGSGSGTDFTLTISSLQPEDFATYYCQQSVPPRTFGGGTKVEIK
–	0.719	129	–	–	Clone 25B (antibody, V domains shown) VH: QVQLVQSGAEVKKPGASVKVSCKASGYTFTSYPIGWVRQAPGQGLEWMGWISSYNGNTNYAQKLQGRVTMTTDTSTSTAYMELRSLRSDDTAVYYCARDLSSFWSGDVLGAFDIWGQGTMVTVSS VL: DIQMTQSPSSLSASVGDRVTITCRASQSISSYLNWYQQKPGKAPKLLIYAASSLQSGVPSRFSGSGSGTDFTLTISSLQPEDFATYYCQQSVPPRTFGGGTKVEIK
–	0.58	137	–	–	Clone 25D (antibody, V domains shown) VH: QVQLVQSGAEVKKPGASVKVSCKASGYTFTSYPIGWVRQAPGQGLEWMGWISSYNGNTNYAQKLQGRVTMTTDTSTSTAYMELRSLRSDDTAVYYCARDLKSFWSGDVLGAFDIWGQGTMVTVSS VL: DIQMTQSPSSLSASVGDRVTITCRASQSISSYLNWYQQKPGKAPKLLIYAASSLQSGVPSRFSGSGSGTDFTLTISSLQPEDFATYYCQQSVPPRTFGGGTKVEIK
–	0.494	124	–	–	Clone 25C (antibody, V domains shown) VH: QVQLVQSGAEVKKPGASVKVSCKASGYTFTSYPIGWVRQAPGQGLEWMGWISSYNGNTNYAQKLQGRVTMTTDTSTSTAYMELRSLRSDDTAVYYCARGASSFWSGDVLGAFDIWGQGTMVTVSS VL: DIQMTQSPSSLSASVGDRVTITCRASQSISSYLNWYQQKPGKAPKLLIYAASSLQSGVPSRFSGSGSGTDFTLTISSLQPEDFATYYCQQSVPPRTFGGGTKVEIK
